Source: US20120107324A1 (published 2012)
Numbering of substitutions follows the chain as printed.

What was measured:
α4β1 integrin [1] = target: T1, α4β1 integrin (UniProt P13612 34-1032; P05556 21-798); assay: cell-based or functional assay
human α5β1 integrin [2] = target: T2, human α5β1 integrin (human, UniProt P08648 42-1049; P05556 21-798); assay: cell-based or functional assay
β1 chain (integrin β1) [3] = target: T3, β1 chain (integrin β1) (human, UniProt P05556 21-798); assay: FACS on HT29 cells (no α5 chain, β1 chain present)
T3 construct: whole, on cells; also called b1; beta1
Protocol: (§1) To confirm the antibodies bind to the α5 chain or to the α5β1 heterodimer, binding to Human colon adenocarcinoma grade II cells (HT29 cells) was assessed by FACS. […] HT-29 cells were suspended in HBSS with 1% BSA and 1 mM final MnCL₂ at a concentration of 6×10⁵ cells/ml. 12.5 uL of the primary antibody was added to 37.5 ul of cells and the plate incubated on ice for 60 minutes. A range of negative controls were included as described previously (indicated as below). In addition as a positive control antibodies to αvβ6 (Mab2077, Chemicon), α5β1 (Mab1909, Chemicon) and αv (L230, Chemicon) were included. 100 uL of HBSS buffer was added to dilute primary antibody, the cells pelleted by centrifuging at 1500 rpm for 3 minutes and resuspended in 50 ul Goat anti-human IgG Fc Cy5 or Goat anti Mouse IgG Fc Cy5 secondary at 2 ug/mL. They were then incubated on ice for a further 7 minutes, and 100 uL of HBSS buffer was added to dilute secondary antibody. Finally cells were pelleted by centrifuging at 1500 rpm for 3 minutes, HBSS Buffer/secondary supernatant removed, washed twice in 100 ul of FACS buffer was added and the cells were resuspended and then read on a FACS Calibur HTS. Samples were analyzed using Cell Quest Pro software. The data is represented in Table 6 and confirm that the antibodies are selective for α5β1.

β1 chain (integrin β1) [4] = target: T3, β1 chain (integrin β1); assay: FACS on HT29 cells (α5 null, β1 present); cells alone 2.07, human secondary 2.8
Protocol: as §1

Macaque α5β1 = target: T4, Macaque α5β1 (Macaque); assay: FACS on macaque T-cells; Goat anti Human IgG Fc Cy5 alone 3
T4 construct: whole, on cells; On macaque T-cells (from frozen PBMCs); also called monkey α5β1; monkey integrin
Protocol: To determine whether the antibodies cross reacted to monkey integrin, binding to purified Macaque T-cells was assessed. Macaque PBMCs were previously purified from whole blood, and stored frozen. Macaque PBMCs were suspended in adhesion buffer with HBSS 1% BSA and 1 mM Mn2+ (“FACS buffer”), at a concentration of 4.8×10⁵ live cells per ml. 12.5 uL of the primary antibody was added to 37.5 ul of cells, and incubated at 4° C. for 1 hour. Positive and negative controls were included as indicated. 100 uL of FACs buffer is added to dilute out primary antibody, the cells washed and resuspended in the appropriate secondary at 2 ug/mL (50 uL) with 10 ug/mL 7AAD, and stained on ice for 7 minutes. 100 uL of FACs buffer was added and cells were washed twice in FACS buffer, finally the supernatant removed and the cells were resuspended in 100 uL of buffer.
Samples were read on HTS FACS machine and analyzed using Cell Quest Pro software. The data shown in Table 7 confirm that the antibodies cross react with monkey α5β1.

α4β1 integrin [5] = target: T1, α4β1 integrin; assay: cell-based or functional assay; remark: listed apart in the source
human α5β1 integrin [6] = target: T2, human α5β1 integrin; assay: cell-based or functional assay; remark: listed apart in the source
human α5β1 integrin [7] = target: T2, human α5β1 integrin; assay: cell-based or functional assay; remark: listed apart in the source
human α5β1 integrin [8] = target: T2, human α5β1 integrin; assay: FACS titration on K562 cells expressing α5β1, 1 mM MgCl2 and 1 mM CaCl2, 4 °C, nonlinear 4-parameter fit; 95% CI ±61.4 pM
Protocol: To assess the affinity of the antibodies for α5β1, a FACS based KD analysis was employed. […] K562 cells expressing α5β1 were resuspended in filtered HBS buffer containing 1 mM MgCl₂ and 1 mM CaCl₂ at a concentration of approximately 2.5-6 million cells/mL. The cells were kept on ice. Serially diluted (2×) mAbs across 11 wells in a 96-well plate. All mAbs were diluted in HBS described above. Additional HBS and cells were added to each well so that the final volume was 300 μL/well and each well contained approximately 140,000-150,000 cells. The final molecular concentration range for each mAb was 2H12: 7.5 nM-[…]. Cells were incubated on a plate shaker for 5 hours at 4° C. and then were spun/washed 3× at 4° C. with HBS. […] The Mean Fluorescence (F) of 7000 “events” was determined using FACS Canto II HTS flow cytometry instrumentation. To calculate affinity, data was fitted nonlinearly to a plot of the Mean Fluorescence as a function of molecular mAb concentration with Scientist 3.0 software using the equation:
In this equation, F=mean fluorescence, LT=total molecular mAb concentration, P′=proportionality constant that relates arbitrary fluorescence units to bound mAb, M=cellular concentration in molarity, n=number of receptors per cell, B=background signal, and KD=equilibrium dissociation constant. […]

T3 sequence (P05556 21-798): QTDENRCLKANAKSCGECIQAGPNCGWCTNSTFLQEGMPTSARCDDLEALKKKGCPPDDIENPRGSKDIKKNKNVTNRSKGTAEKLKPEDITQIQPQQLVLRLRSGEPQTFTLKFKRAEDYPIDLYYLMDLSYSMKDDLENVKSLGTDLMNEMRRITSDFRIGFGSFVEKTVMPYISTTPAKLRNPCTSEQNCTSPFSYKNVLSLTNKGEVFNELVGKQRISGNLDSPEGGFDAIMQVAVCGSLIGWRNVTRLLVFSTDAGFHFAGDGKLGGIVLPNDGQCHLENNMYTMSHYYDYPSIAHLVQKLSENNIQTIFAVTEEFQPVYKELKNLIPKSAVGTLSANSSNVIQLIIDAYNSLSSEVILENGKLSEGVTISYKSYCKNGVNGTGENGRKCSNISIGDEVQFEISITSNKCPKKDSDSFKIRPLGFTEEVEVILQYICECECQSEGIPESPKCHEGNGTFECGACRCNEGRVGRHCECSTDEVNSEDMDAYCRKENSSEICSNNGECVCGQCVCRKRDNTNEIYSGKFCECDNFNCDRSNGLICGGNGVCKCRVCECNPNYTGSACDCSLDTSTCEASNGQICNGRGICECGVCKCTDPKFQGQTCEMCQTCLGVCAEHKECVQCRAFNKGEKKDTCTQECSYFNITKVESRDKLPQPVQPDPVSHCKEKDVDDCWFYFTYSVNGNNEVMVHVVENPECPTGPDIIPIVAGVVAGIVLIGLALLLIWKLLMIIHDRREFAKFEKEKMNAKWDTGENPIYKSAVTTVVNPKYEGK
T2 sequence (P08648 42-1049, chain 1 of 2): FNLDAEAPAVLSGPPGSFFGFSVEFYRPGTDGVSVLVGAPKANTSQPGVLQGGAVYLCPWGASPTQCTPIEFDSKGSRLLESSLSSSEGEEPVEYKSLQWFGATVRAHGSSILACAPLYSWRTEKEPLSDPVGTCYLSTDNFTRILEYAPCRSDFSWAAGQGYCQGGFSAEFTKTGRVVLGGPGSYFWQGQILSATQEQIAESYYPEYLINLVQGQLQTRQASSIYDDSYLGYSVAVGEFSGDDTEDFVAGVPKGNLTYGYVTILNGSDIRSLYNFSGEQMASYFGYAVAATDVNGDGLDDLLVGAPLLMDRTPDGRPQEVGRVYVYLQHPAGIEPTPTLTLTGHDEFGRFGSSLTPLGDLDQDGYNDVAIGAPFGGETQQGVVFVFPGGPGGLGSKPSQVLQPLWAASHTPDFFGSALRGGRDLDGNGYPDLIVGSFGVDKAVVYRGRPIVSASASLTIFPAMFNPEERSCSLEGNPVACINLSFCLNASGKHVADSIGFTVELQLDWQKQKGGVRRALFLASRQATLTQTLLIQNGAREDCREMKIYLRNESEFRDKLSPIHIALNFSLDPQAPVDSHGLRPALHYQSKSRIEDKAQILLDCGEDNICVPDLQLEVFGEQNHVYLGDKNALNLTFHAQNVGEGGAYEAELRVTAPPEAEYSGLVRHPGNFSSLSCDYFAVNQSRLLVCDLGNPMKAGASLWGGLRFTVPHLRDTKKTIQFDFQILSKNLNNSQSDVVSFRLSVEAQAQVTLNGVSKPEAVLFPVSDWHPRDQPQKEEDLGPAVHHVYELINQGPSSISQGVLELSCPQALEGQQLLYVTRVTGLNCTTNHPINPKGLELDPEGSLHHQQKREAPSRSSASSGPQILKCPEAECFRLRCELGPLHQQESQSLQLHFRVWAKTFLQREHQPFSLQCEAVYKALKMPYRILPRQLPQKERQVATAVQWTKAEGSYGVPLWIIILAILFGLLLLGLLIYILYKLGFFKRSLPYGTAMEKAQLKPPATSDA
T2 sequence (P05556 21-798, chain 2 of 2): as the sequence (P05556 21-798) above
T1 sequence (P13612 34-1032, chain 1 of 2): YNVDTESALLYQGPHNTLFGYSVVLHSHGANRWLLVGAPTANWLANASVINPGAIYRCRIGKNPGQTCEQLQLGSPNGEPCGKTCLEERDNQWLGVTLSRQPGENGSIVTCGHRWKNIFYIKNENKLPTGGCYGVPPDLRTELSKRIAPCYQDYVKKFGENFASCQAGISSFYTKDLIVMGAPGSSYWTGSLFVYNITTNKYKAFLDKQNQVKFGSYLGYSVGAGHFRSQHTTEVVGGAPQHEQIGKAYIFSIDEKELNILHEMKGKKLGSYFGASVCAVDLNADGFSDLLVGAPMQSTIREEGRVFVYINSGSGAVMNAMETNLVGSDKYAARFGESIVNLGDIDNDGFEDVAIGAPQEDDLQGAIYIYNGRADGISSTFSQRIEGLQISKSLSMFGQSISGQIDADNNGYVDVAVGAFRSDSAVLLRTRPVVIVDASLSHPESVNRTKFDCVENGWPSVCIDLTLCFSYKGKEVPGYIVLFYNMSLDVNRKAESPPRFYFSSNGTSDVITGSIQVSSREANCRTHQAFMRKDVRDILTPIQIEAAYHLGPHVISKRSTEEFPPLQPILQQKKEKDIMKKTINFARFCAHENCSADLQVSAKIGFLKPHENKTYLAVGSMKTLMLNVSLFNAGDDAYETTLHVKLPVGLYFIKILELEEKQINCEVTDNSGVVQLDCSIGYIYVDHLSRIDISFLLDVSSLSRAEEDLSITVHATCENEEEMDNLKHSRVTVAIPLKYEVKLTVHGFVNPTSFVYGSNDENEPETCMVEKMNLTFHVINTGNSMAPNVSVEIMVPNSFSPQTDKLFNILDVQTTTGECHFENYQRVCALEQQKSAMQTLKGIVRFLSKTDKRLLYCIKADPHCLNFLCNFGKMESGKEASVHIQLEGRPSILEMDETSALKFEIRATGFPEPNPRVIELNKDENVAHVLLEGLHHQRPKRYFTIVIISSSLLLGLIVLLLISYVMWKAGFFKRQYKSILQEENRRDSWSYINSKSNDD
T1 sequence (P05556 21-798, chain 2 of 2): as the sequence (P05556 21-798) above

B1: 1F2.2B7 (antibody, IgG4, V domains shown)
VH: QVQLVESGGGVVQPGRSLRLSCAASGFTFRSYGMHWVRQAPGKGLEWVAVIWYDGSNKYYADSVKGRFTISRDNSKNTLYLQMNSLRAEDTAMYYCARDGAARRGDYYYYHGMDVWGQGTTVTVSS
VL: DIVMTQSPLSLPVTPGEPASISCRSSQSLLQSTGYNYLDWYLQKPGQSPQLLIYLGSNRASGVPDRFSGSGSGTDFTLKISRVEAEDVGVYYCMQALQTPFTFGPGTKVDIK
notes: also called mAb 1F2.2B7
α4β1 integrin [1]
  % Inhibition of adhesion, CS1 n = 1 (J6.77 Jurkat cells on GST-CS-1): 29%
  % Inhibition of adhesion, CS1 n = 2 (J6.77 Jurkat cells on GST-CS-1): 22%
Human α5β1 integrin [2]
  % Inhibition of cell adhesion, n = 1 (K562 on full length FN, supernatant 1 in 4): 93%
  % Inhibition of cell adhesion, n = 2 (K562 on full length FN, supernatant 1 in 4): 102%
  % Inhibition of cell adhesion, n = 3 (K562 on GST-FNIII(9-10), no pre-incubation, supernatant 1 in 4): 100%
  % Inhibition of cell adhesion, n = 4 (K562 on GST-FNIII(9-10), supernatant 1 in 10): 98%
  % Inhibition of cell adhesion, n = 5 (K562 on GST-FNIII(9-10), supernatant 1 in 10): 77%
β1 chain (integrin β1) [3]
  binding result: no binding
β1 chain (integrin β1) [4]
  Binding Geomean: 2.75
Macaque α5β1
  Geo Mean on Macaque T-cells IgG detection: 9

B2: 2G2.2B5 (antibody, IgG4, V domains shown)
VH: B1 VH with R30S, M93V, H111Y
VL: EIVMTQSPLSLPVTPGEPASISCRSGQSLLQSTGSNYLAWYLQKPGQSPQLLIYLGSNRASGVPDRFSGSGSGTDFTLKISRVEAEDVGVYYCMQALQTPFTFGPGTKVDIK
notes: Isotype IgG4/k
α4β1 integrin [1]
  % Inhibition of adhesion, CS1 n = 1 (J6.77 Jurkat cells on GST-CS-1): 28%
  % Inhibition of adhesion, CS1 n = 2 (J6.77 Jurkat cells on GST-CS-1): -5%
Human α5β1 integrin [2]
  % Inhibition of cell adhesion, n = 1 (K562 on full length FN, supernatant 1 in 4): 100%
  % Inhibition of cell adhesion, n = 2 (K562 on full length FN, supernatant 1 in 4): 102%
  % Inhibition of cell adhesion, n = 3 (K562 on GST-FNIII(9-10), no pre-incubation, supernatant 1 in 4): 97%
  % Inhibition of cell adhesion, n = 4 (K562 on GST-FNIII(9-10), supernatant 1 in 10): 82%
  % Inhibition of cell adhesion, n = 5 (K562 on GST-FNIII(9-10), supernatant 1 in 10): 78%
β1 chain (integrin β1) [3]
  binding result: no binding
α4β1 integrin [5]
  Average % inhibition at 5 ug/ml (J6 cell adhesion to GST-CS-1): -11%
β1 chain (integrin β1) [4]
  Binding Geomean: 3.03
Macaque α5β1
  Geo Mean on Macaque T-cells IgG detection: 11

B3: 2H12 (antibody, IgG4, V domains shown)
VH: B1 VH with R30S, S56T, N77T, M93V, H111Y
VL: B2 VL with E1D, G26S, Q31R, S32G, T33H, S35Y, N36S, A39D
notes: Identified as an IgG4/k antibody; also called MAb 2H12; 2H12 IgG4
Human α5β1 integrin [6]
  IC50 ng/mL (adhesion of K562 cells to GST-Fibronectin type III domains 9-10): 43.2 ng/mL
Human α5β1 integrin [2]
  % Inhibition of cell adhesion, n = 1 (K562 on full length FN, supernatant 1 in 4): 89%
  % Inhibition of cell adhesion, n = 2 (K562 on full length FN, supernatant 1 in 4): 100%
  % Inhibition of cell adhesion, n = 3 (K562 on GST-FNIII(9-10), no pre-incubation, supernatant 1 in 4): 96%
  % Inhibition of cell adhesion, n = 4 (K562 on GST-FNIII(9-10), supernatant 1 in 10): 92%
  % Inhibition of cell adhesion, n = 5 (K562 on GST-FNIII(9-10), supernatant 1 in 10): 89%
Human α5β1 integrin [7]
  IC50 (read off the curve), adhesion of K562 cells to GST-fibronectin repeats 8-10: ~0.2 µg/mL
Human α5β1 integrin [8]
  Kd: 0.162 nM
β1 chain (integrin β1) [4]
  Binding Geomean: 2.96

B4: 4G3.3D11 (antibody, IgG4, V domains shown)
VH: B1 VH with T28I, R30S, S56T, M93V, H111Y
VL: B2 VL with E1D, G26S, Q31H, S32G, S35Y, N36S, Y37S, A39D, Y92F
notes: Isotype IgG4/k
Human α5β1 integrin [6]
  IC50 ng/mL (adhesion of K562 cells to GST-Fibronectin type III domains 9-10): 60.2 ng/mL
Human α5β1 integrin [2]
  % Inhibition of cell adhesion, n = 1 (K562 on full length FN, supernatant 1 in 4): 96%
  % Inhibition of cell adhesion, n = 2 (K562 on full length FN, supernatant 1 in 4): 99%
  % Inhibition of cell adhesion, n = 3 (K562 on GST-FNIII(9-10), no pre-incubation, supernatant 1 in 4): 102%
  % Inhibition of cell adhesion, n = 4 (K562 on GST-FNIII(9-10), supernatant 1 in 10): 100%
  % Inhibition of cell adhesion, n = 5 (K562 on GST-FNIII(9-10), supernatant 1 in 10): 81%
β1 chain (integrin β1) [3]
  binding result: no binding
β1 chain (integrin β1) [4]
  Binding Geomean: 3.06

B5: 7B1.3A1 (antibody, IgG4, V domains shown)
VH: B1 VH with I51L, Y59N
VL: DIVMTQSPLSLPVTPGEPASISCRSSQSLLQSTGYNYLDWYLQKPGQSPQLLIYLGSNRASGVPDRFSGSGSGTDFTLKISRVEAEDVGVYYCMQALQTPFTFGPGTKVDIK
notes: also called MAb 7B1.3A1
Human α5β1 integrin [6]
  IC50 ng/mL (adhesion of K562 cells to GST-Fibronectin type III domains 9-10): 49.8 ng/mL
α4β1 integrin [1]
  % Inhibition of adhesion, CS1 n = 1 (J6.77 Jurkat cells on GST-CS-1): 33%
  % Inhibition of adhesion, CS1 n = 2 (J6.77 Jurkat cells on GST-CS-1): 12%
Human α5β1 integrin [2]
  % Inhibition of cell adhesion, n = 1 (K562 on full length FN, supernatant 1 in 4): 98%
  % Inhibition of cell adhesion, n = 2 (K562 on full length FN, supernatant 1 in 4): 100%
  % Inhibition of cell adhesion, n = 3 (K562 on GST-FNIII(9-10), no pre-incubation, supernatant 1 in 4): 91%
  % Inhibition of cell adhesion, n = 4 (K562 on GST-FNIII(9-10), supernatant 1 in 10): 93%
  % Inhibition of cell adhesion, n = 5 (K562 on GST-FNIII(9-10), supernatant 1 in 10): 84%
β1 chain (integrin β1) [3]
  binding result: no binding
α4β1 integrin [5]
  Average % inhibition at 5 ug/ml (J6 cell adhesion to GST-CS-1): -7%
β1 chain (integrin β1) [4]
  Binding Geomean: 3.17
Macaque α5β1
  Geo Mean on Macaque T-cells IgG detection: 10

B6: 3F12.4A1 (antibody, IgG2, V domains shown)
VH: B1 VH with R30S, S56T, R87T, M93V, G100M, H111Y, Q118P
VL: B2 VL with E1D, G26S, Q31N, S32G, T33I, S35Y, Y37F, A39D, K79T, Q95H
notes: Isotype IgG2/k
Human α5β1 integrin [2]
  % Inhibition of cell adhesion, n = 1 (K562 on full length FN, supernatant 1 in 4): 103%
  % Inhibition of cell adhesion, n = 2 (K562 on full length FN, supernatant 1 in 4): 100%
  % Inhibition of cell adhesion, n = 3 (K562 on GST-FNIII(9-10), no pre-incubation, supernatant 1 in 4): 97%
  % Inhibition of cell adhesion, n = 4 (K562 on GST-FNIII(9-10), supernatant 1 in 10): 93%
  % Inhibition of cell adhesion, n = 5 (K562 on GST-FNIII(9-10), supernatant 1 in 10): 91%
β1 chain (integrin β1) [3]
  binding result: no binding
α4β1 integrin [5]
  Average % inhibition at 5 ug/ml (J6 cell adhesion to GST-CS-1): -2%
β1 chain (integrin β1) [4]
  Binding Geomean: 3.61
Macaque α5β1
  Geo Mean on Macaque T-cells IgG detection: 13

B7: IIA1 (antibody, V domains shown)
VH: QVQLKESGPGLVAPSQSLSITCTISGFSLTDYGVHWVRQPPGKGLEWLVVIWSDGSSTYNSALKSRMTIRKDNSKSQVFLIMNSLQTDDSAMYYCARHGTYYGMTTTGDALDYWGQGTSVTVSS
VL: QIVLTQSPAIMSASLGERVTMTCTASSSVSSNYLHWYQQKPGSAPNLWIYSTSNLASGVPARFSGSGSGTSYSLTISSMEAEDAATYYCHQYLRSPPTFGGGTKLEIK
Human α5β1 integrin [6]
  IC50 ng/mL (adhesion of K562 cells to GST-Fibronectin type III domains 9-10): 16.7 ng/mL

B8: 2H12 IgG2 WT (antibody, V domains shown)
VH: B1 VH with R30S, S56T, M93V, H111Y
VL: B2 VL with E1D, G26S, Q31R, S32G, T33H, S35Y, N36S, A39D
Human α5β1 integrin [7]
  IC50 (read off the curve), adhesion of K562 cells to GST-fibronectin repeats 8-10: ~0.2 µg/mL

B9: 2H12 Variant 1 (IgG2) (antibody, V domains shown)
VH: B1 VH with R30S, S56T, M93V, H111Y
VL: B2 VL with E1D, G26S, Q31R, S32G, T33H, S35Y, N36S, A39D
Human α5β1 integrin [7]
  IC50 (read off the curve), adhesion of K562 cells to GST-fibronectin repeats 8-10: ~0.2 µg/mL
